According to publication PMC4666138 (Molecular Biology of the Cell, 2015):

B1: FLAG-tagged UBAC2 (recombinant, WT) (natural protein)
chain: HCQKLFVYDLHAVKNDFQIWRLICGRIICLDLKDTFCSSLLIYNFRIFERRYGSRKFASFLLGSWVLSALFDFLLIEAMQYFFGITAASNLPSGFLAPVFALFVPFYCSIPRVQVAQILGPLSITNKTLIYILGLQLFTSGSYIWIVAISGLMSGLCYDSKMFQVHQVLCIPSWMAKFFSWTLEPIFSSSEPTSEARIGMGATLDIQRQQRMELLDRQLMFSQFAQGRRQRQQQGGMINWNRLFPPLRQRQNVNYQGGRQSEPAAPPLEVSEEQVARLMEMGFSRGDALEALRASNNDLNVATNFLLQH
B2: FLAG-tagged UbxD8 (wild type) (natural protein)
chain: MAAPEERDLTQEQTEKLLQFQDLTGIESMDQCRHTLEQHNWNIEAAVQDRLNEQEGVPSVFNPPPSRPLQVNTADHRIYSYVVSRPQPRGLLGWGYYLIMLPFRFTYYTILDIFRFALRFIRPDPRSRVTDPVGDIVSFMHSFEEKYGRAHPVFYQGTYSQALNDAKRELRFLLVYLHGDDHQDSDEFCRNTLCAPEVISLINTRMLFWACSTNKPEGYRVSQALRENTYPFLAMIMLKDRRMTVVGRLEGLIQPDDLINQLTFIMDANQTYLVSERLEREERNQTQVLRQQQDEAYLASLRADQEKERKKREERERKRRKEEEVQQQKLAEERRRQNLQEEKERKLECLPPEPSPDDPESVKIIFKLPNDSRVERRFHFSQSLTVIHDFLFSLKESPEKFQIEANFPRRVLPCIPSEEWPNPPTLQEAGLSHTEVLFVQDLTDE

Experiments:
[1] = biological target: B2; experiment: co-IP
FLAG-tagged gp78 = FLAG-tagged gp78 (UniProt Q9UKV5 1-643); experiment: co-IP
Sequence of FLAG-tagged gp78 (Q9UKV5 whole entry): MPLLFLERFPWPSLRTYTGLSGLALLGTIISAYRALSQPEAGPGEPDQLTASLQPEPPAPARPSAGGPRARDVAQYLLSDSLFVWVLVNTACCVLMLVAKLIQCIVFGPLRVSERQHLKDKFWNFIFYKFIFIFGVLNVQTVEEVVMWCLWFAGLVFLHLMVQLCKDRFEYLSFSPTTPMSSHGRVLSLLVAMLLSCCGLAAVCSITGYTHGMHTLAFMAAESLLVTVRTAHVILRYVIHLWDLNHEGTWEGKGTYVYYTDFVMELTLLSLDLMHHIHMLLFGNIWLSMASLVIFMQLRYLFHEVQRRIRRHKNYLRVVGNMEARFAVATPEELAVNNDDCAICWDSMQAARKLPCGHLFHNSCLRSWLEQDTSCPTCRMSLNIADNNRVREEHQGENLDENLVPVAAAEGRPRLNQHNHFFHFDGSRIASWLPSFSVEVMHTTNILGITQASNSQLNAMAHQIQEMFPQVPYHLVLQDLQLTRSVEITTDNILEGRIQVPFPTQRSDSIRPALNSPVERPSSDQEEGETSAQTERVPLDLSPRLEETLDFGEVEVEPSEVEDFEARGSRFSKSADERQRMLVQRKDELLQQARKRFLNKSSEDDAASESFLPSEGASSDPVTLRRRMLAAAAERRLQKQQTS

| Binder | stoichiometry N [1] [UBAC2 per UbxD8] | stoichiometry N (FLAG-tagged gp78) |
| --- | --- | --- |
| B1 | ~2 | ~2 UBAC2 per gp78 |
| B2 |  | ~1 UbxD8 per gp78 |
